Test results as given in paper PMC3545106 (Structure (London, England : 1993), 2012).
Square brackets hold non-standard residues; d marks the D form. Ends that are not written are not given here. pT = C[C@@H](OP(=O)(O)O)[C@H](N)C(=O)O

T1: AF9 ANC1 Homology Domain (AHD), residues 490-568 (UniProt P42568 490-568)
T1 sequence (looked up): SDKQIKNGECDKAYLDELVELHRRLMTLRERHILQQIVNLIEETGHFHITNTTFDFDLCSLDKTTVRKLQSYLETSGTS

T2: AF4 peptide phosphorylated at T766
T2 chain: LMVKI[pT]LDLLSRIP


Experiments:
[1] = target: T1, AF9 ANC1 Homology Domain (AHD), …; test: NMR titration
[2] = target: T2, AF4 peptide phosphorylated at T766; test: fluorescence polarisation
[3] = target: BCoR peptide of the fluorescence anisotropy experiments; test: fluorescence polarisation
[4] = target: AF4 peptide of the fluorescence anisotropy experiments; test: fluorescence polarisation

binding result [1]	fold reduction of affinity against the unphosphorylated AF4 peptide [2] [fold]	Kd [3] [nM]	Kd [4] [nM]	Binder
binds				LMVKITLDLLSRIP (peptide, UniProt P51825 761-774, looked up) [AF4 peptide, residues 761-774 (AF9 interaction motif of AF4)]
	~30	32	0.17	MBP-AF9 (mouse AF9 residues 475-568 fused to the Maltose Binding Protein) (domain or fragment, UniProt A2AM29 475-568, looked up) NNNQILEVKSPIKQSKSDKQIKNGECDKAYLDELVELHRRLMTLRERHILQQIVNLIEETGHFHITNTTFDFDLCSLDKTTVRKLQSYLETSGT
